Earlier results, collected in patent publication US7037697B2, “Isozyme of autoclavable superoxide dismutase (SOD), a process for the identification and extraction of the SOD and use of the said SOD in cosmetic, food, and pharmaceutical compositions” (Council of Scientific & Industrial Research, priority 2000, dated 2006).

Settings: Cu/Zn-SOD, Bonaccorsi di Patti et al. 1994

ox: Cu/Zn-SOD from ox
conformational melting temperatures: 88.05 °C

B1: yeast: Cu/Zn-SOD from yeast (protein, UniProt P00445 2-154, looked up)
Superoxide dismutase [Cu-Zn]: VQAVAVLKGDAGVSGVVKFEQASESEPTTVSYEIAGNSPNAERGFHIHEFGDATNGCVSAGPHFNPFKKTHGAPTDEVRHVGDMGNVKTDENGVAKGSFKDSLIKLIGPTSVVGRSVVIHAGQDDLGKGDTEESLKTGNAGPRPACGVIGLTN
conformational melting temperatures: 73.1 °C
